Experimental data: patent US8034572B2, “Receptor for GDNF family ligands” (priority 2006, dated 2011)
“And” between values parts separate entries of the source, which are not always exact repeats. Equal values may be shown once. Read-outs that look alike come from different tables or passages of the source.

T1: GDNF (Homo sapiens, UniProt P39905)
T1 construct: purchased PeproTech, Ltd. or R&D Systems, Inc
T1 sequence (P39905 78-211 limits assumed): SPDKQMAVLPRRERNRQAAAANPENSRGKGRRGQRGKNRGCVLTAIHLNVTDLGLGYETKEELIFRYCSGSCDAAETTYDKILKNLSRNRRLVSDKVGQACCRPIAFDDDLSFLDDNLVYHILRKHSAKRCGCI


Key:
SHEP cells = test: SHEP cell adhesion and spreading assay on immobilized proteins; type: cell-based, human; details: for adherence and spreading of SHEP cells on immobilized protein: protein immobilized on plastic microplate
Protocol: Cell adhesion assays were essentially performed as described elsewhere (Weinacker et al., 1994). To prepare protein-coated surfaces the protein of interest (10 μg/ml in PBS) was applied to 96-well ELISA (Greiner) plates or to glass cover slips for 12-18 hours at +4° C. After incubation, the surfaces were washed with PBS and blocked with 1% globulin-free BSA for two hours. Some GDNF coated surfaces were incubated with 20 μg/ml of G-90 (Amgen) GDNF function-blocking antibodies (Xu et al., 1998) for 2 hours at room temperature.
Subconfluent SHEP cells were harvested in PBS supplemented with 10 mM EDTA for 5 min at 37° C. Cells were washed with incubation buffer (RPMI 1640, 0.2% BSA, 15 mM HEPES pH 7.2) and 10000-40000 cells/well plated on the protein coated surface. Plates were centrifuged for 5 min at 10 g and incubated for one hour at 37° C. in 5% CO2. After incubation cells were washed with PBS, fixed with methanol supplemented with crystal violet for 15 min at room temperature and washed again with PBS. The remaining cells were counted using a Leica DMIRB inverted microscope with 10× objective in 5 fields per well.
Some cells were pretreated with heparinase III, PI-PLC (see above), 0.3 U/ml chodroitinase ABC for one hour at 37° C., 5% CO2, or with 20 μg/ml of NCAM blocking antibodies (AB5032, Chemicon Inc.) for 15-30 min on ice.
After one hour of incubation in serum-free medium unattached cells were removed by washing. The remaining cells were stained and counted on Leica DMIRB inverted microscope with a 10× objective in 5 fields per well and the resulting cell number was calculated for the whole well.
Live SHEP cells spreading on immobilized GDNF were imaged for 20 minutes using the Till imaging system with an Imago-QE digital camera (Till Photonics) equipped with heating (+37° C.) and CO2 supply (5%) chambers.

[1] = tested on: rat embryonic hippocampal neurons; test: Neurite outgrowth assay in E17 rat hippocampal neurons; type: cell-based; details: E17 rat hippocampal neurons
Protocol: Hippocampi were dissected from E17 embryonic rat brains under the microscope and transferred to the preparation media (HBBS without Ca^2+ and Mg^2+ supplemented with 1 mM sodium pyruvate (Gibco) and buffered by 10 mM Hepes pH 7.2), then partially digested by papain and triturated in the preparation media supplemented with DNase I. Cells were washed with HBBS containing Ca^2+ and Mg^2+ and transferred to the growth media (Neurobasal media with B27 supplement, 2 mM L-glutamine, 25 μM glutamic acid and penicillin and streptomycin (Gibco)). For enzymatic treatments neurons were kept in the growth media supplemented with 0.2% BSA at +37° C. for one hour. After the treatment cells in the same media were seeded on the protein-coated cover slips (see above) and after 10 min, the media was changed for B27-free media. Neurons were incubated at +37° C., 5% CO2 for 18 hours.
For immunocytochemistry neurons were washed with PBS and fixed with 4% PFA, permeabilized with 0.1% Triton X-100 and stained with rabbit polyclonal antiserum to Protein Gene Product 9.5 (Affiniti), neuron-specific Class III tubulin-βIII clone Tuj1 antibodies (BABCO) or with antibodies against the neurofilament triplet, 13AA8 (Arumäe et al., 1993). Secondary antibodies were goat anti-rabbit or anti-mouse Alexa488-conjugated (Molecular Probes).
The immunostained cultures were viewed using the ×20 objective of a Zeiss Axioplan 2 fluorescent microscope (Zeiss). Neurons with at least two times longer than cell body diameter processes were considered process-bearing. Three cover slips were used in parallel and 100 neurons per cover slip were counted. Results were derived from 3 to 5 independent experiments.

GDNF [2] = biological target: T1, GDNF; test: SPR: direct binding of heparin or desulfated heparins to GDNF cuvette
Protocol: (§1) Specifically desulfated heparins (Takano et al., 1998) were used to assess the involvement of different sulfate groups in the GDNF-heparin interaction by following direct binding to GDNF cuvette, or by competing out GDNF binding to the heparin-BSA cuvette. Dissociation constants were determined from direct binding using increasing GDNF concentrations and by fitting the data to R=(Rmax*C)/(Kd+C) for heparin. For desulfated heparins, the best fit was achieved using equation R=(Rmax1*C)/(Kd1+C)+(Rmax2*C)/(Kd2+C), where Kd1 and Kd2 are apparent dissociation constants derived for two heparin sites of different affinities with maximum equilibrium response Rmax1 and Rmax2, respectively.

GDNF [3] = biological target: T1, GDNF; test: SPR: competition of GDNF binding to heparin-BSA cuvette by heparin and desulfated heparins; details: competing out GDNF binding to heparin-BSA cuvette
Protocol: as §1

[4] = Binding of ^125I-labeled GFLs to heparin-sepharose column, step NaCl elution; details: for NaCl concentration at elution from heparin-sepharose column: ^125I-GFLs, step NaCl gradient; for binding to heparin-sepharose column: ^125I-labeled GFLs
Protocol: GFL iodination was performed as described (Lindahl et al., 2001). Heparin-sepharose column (Amersham Biosciences) chromatography was performed to assess GFL binding to heparin. GDNF, ARTN, NRTN and PSPN were purchased from PeproTech, Ltd. or R&D Systems, Inc. GFLs were enzymatically labeled with carrier-free [^125I]NaI (Amersham Biosciences) by the lactoperoxidase method to a specific activity of 100000-200000 cpm/ng as described elsewhere (Lindahl et al., 2001). 15000-20000 cpm of iodinated GFLs, together with 10 μg of the same unlabeled protein as a carrier, were injected into a 1 ml heparin-sepharose column (Amersham Biosciences) in phosphate buffer pH 7.2 containing 100 mM NaCl and 10 mg/ml of BSA. After washing with 5 volumes of the same buffer, iodinated GFLs were eluted from the column by step elution (2 ml) with increasing NaCl concentration. The resulting fractions were counted on Rackbeta 1214 (LKB/Wallac) scintillation counter.

[5] = SPR (IAsys): GFLs interaction with heparin-BSA cuvette; type: binding; details: for ka (×10^−5) (M^−1s^−1) / kdis: GFL in solution; for Kd = kdis/ka: from dynamics; for Kd: from equilibrium response
Protocol: (§2) The affinities of GFLs for heparin and heparin-like molecules (e.g. syndecan-3) were determined by plasmon surface resonance using the IAsys system (Affinity Sensors, Cambridge, UK). Planar aminosilane cuvettes (Affinity Sensors) were used for protein coupling to avoid problems with mass transport, which occur frequently with matrix surfaces. In the initial approach, heparin-BSA was immobilized to the cuvette surface using the manufacturer's instructions and different ligand concentrations were used to determine association (ka) and dissociation (kdis) rates using the IAsys Fastfit software. The dissociation constant Kd was determined from the binding dynamics as […], or from equilibrium response (R) using a simple Langmuir fit: R=(Rmax*C)/(Kd+C), where C is the ligand concentration. […] The dissociation constants were determined from binding dynamics and equilibrium response. The same cuvettes were used to test binding of heparan sulfate proteoglycan syndecan-3, which was purified as an ectodomain from early postnatal rat brains by HB-GAM affinity chromatography (Raulo et al., 1994).
(§3) Binding was analyzed using IAsys cuvettes with immobilized heparin-BSA or GFLs. The dissociation constant Kd was determined from dynamics of association and dissociation (Kd=kdis/ka), or from equilibrium response R (R=(Rmax*C)/(Kd+C), where C is ligand concentration).

[6] = SPR (IAsys): heparin interaction with GFLs cuvette; type: binding; details: for ka (×10^−5) (M^−1s^−1) / kdis: heparin in solution; for Kd = kdis/ka: from dynamics
Protocol: as §2, §3

syndecan-3 ectodomain = biological target: T2, syndecan-3 ectodomain (Rattus norvegicus, UniProt P33671); test: SPR (IAsys): syndecan-3 ectodomain interaction with GFLs cuvette; type: binding; details: syndecan-3 ectodomain in solution
T2 construct: purified as an ectodomain from early postnatal rat brains; from tissue; host or cells: early postnatal rat brain
Protocol: as §2, §3

GDNF-syndecan-3 complex = biological target: T3, GDNF-syndecan-3 complex (UniProt P33671+P39905); test: Chemical cross-linking of ^125I-GDNF to C6 cells and immunoprecipitation with anti-syndecan-3; type: cell-based, rat; details: heparin 1 μg/ml; HB-GAM 150-fold molar excess; added with ^125I-GDNF
T3 construct: the rat glioma C6 cell line, which expresses syndecan-3; endogenous in cells; host or cells: rat glioma C6 cells (syndecan-3); GDNF purchased from PeproTech or R&D Systems and iodinated
Protocol: Glioma C6 cells were plated on 6-well plates and grown to 70% confluency. Cells were incubated with 1 nM ^125I-GDNF for 2 hours in binding buffer (Dulbecco's modified Eagle's medium, 0.2% BSA and 15 mM Hepes, pH 7.2) on ice. Unbound ligand was removed by washing three times with ice-cold PBS. The chemical cross-linker ethyl-dimethyl-aminopropyl-carbodimide (EDAC) supplemented with N-hydroxysuccinimide (NHS) (Sigma) was incubated with cells for 20 min at room temperature in PBS. The reaction was quenched with TBS for 15 min and cells were lysed in lysis buffer (TBS, 1% Triton X-100, 1% NP-40, 2 mM EDTA, 1 mM PMSF and Complete protease inhibitor mixture from Roche Molecular Biochemicals). Cell lysates were immunoprecipitated with anti-syndecan-3 antibodies (Nolo et al., 1995) and resolved on 7.5% SDS-PAGE. Autoradiography was performed with BAS1500 (Fuji). For heparinase III or PI-PLC treatment cells were incubated with 10 mU/ml heparinase III or with 1 U/ml PI-PLC, respectively for one hour at 37° C., 5% CO2 before ^125I-GDNF addition.

[7] = pretreatment of cells with SFK inhibitor
[8] = apparent Kd from equilibrium response, read-out: Kd1
[9] = apparent Kd of second site, two-site fit, read-out: Kd2
[10] = GFLs cuvette, from equilibrium response, read-out: Kd (equilibrium)

T2 sequence (P33671 45-387 limits assumed): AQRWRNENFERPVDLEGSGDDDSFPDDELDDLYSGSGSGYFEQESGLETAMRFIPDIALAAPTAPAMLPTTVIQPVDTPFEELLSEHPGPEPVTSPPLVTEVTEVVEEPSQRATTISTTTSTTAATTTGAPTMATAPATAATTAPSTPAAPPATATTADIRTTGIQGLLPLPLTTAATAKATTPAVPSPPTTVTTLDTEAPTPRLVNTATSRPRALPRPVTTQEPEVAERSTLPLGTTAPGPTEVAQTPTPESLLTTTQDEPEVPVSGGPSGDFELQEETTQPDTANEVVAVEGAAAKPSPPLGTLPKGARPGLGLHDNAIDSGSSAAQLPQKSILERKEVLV
T3 sequence (P33671 45-442, one chain of several): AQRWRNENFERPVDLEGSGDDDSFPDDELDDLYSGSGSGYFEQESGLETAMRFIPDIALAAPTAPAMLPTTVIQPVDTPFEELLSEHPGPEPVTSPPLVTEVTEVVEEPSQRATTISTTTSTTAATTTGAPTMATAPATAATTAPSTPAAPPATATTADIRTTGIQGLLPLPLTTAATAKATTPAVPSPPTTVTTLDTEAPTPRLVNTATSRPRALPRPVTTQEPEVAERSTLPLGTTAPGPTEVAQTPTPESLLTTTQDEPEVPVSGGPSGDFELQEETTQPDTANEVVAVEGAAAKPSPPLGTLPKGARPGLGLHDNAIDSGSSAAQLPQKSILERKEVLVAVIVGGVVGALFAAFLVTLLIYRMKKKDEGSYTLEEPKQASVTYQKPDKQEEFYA

Molecule	Kd (GDNF [2]; [8])	Kd (GDNF [2]; [9])	IC50 (GDNF [3])	NaCl concentration at elution from heparin-sepharose column [4]	binding to heparin-sepharose column [4]	ka (×10^−5) (M^−1s^−1) [5]	kdis [5]	Kd = kdis/ka [5]	Kd [5]	ka (×10^−5) (M^−1s^−1) ([6]; GFLs cuvette)	kdis ([6]; GFLs cuvette)	adherence and spreading of SHEP cells on immobilized protein (SHEP cells)	other results
CN(C)S(=O)(=O)c1ccc2c(c1)/C(=C/c1cc3c([nH]1)CCCC3)C(=O)N2 [SU6656, reference compound]													effect on SHEP cell adherence on immobilized GDNF (SHEP cells; [7]): did not impair their adherence; effect on SHEP cell spreading on immobilized GDNF (SHEP cells; [7]): diminished their spreading; effect of inhibitor on neurite outgrowth on immobilized GDNF [1]: prevented neurite outgrowth
N-desulfated heparin	29.1 ± 6.4 nM	11400 nM	2.3 ng/mL										
ARTN: artemin, secreted growth factor, GDNF family ligand				1 to 1.5 M	bind strongly to heparin	0.09 (×10^−5) M^−1s^−1	0.0013 s⁻¹	148 ± 39 nM	187 ± 34 nM	8.0 (×10^−5) M^−1s^−1	0.042 s⁻¹	induced adherence and spreading	Kd = kdis/ka ([6]; GFLs cuvette): 44.7 ± 12.3 nM; Kd [6, 10]: 13 ± 3.9 nM; ka (×10^−5) (M^−1s^−1) (syndecan-3 ectodomain): 6.3 ± 0.7 (×10^−5) M^−1s^−1
2-O-desulfated heparin	35.4 ± 7.5 nM	9500 nM	4.3 ng/mL										
6-O-desulfated heparin	36.3 ± 4.6 nM	18000 nM and 18100 nM	1.3 ng/mL										
HB-GAM: ECM molecule, another syndecan-3-specific ligand (protein) GKKEKPEKKVKKSDCGEWQWSVCVPTSGDCGLGTREGTRTGAECKQTMKTQRCKIPCNWKKQFGAECKYQFQAWGECDLNTALKTRTGSLKRALHNADCQKTVTISKPCGKLTKPKPQAESKKKKKEGKKQEKMLD													effect on ^125I-GDNF binding to syndecan-3 on C6 cells (GDNF-syndecan-3 complex): displaced
NRTN: neurturin, secreted growth factor, GDNF family ligand (protein) ARLGARPCGLRELEVRVSELGLGYASDETVLFRYCAGACEAAARVYDLGLRRLRQRRRLRRERVRAQPCCRPTAYEDEVSFLDAHSRYHTVHELSARECACV				1.5 M	bind strongly to heparin	3.2 (×10^−5) M^−1s^−1	0.018 s⁻¹	59.4 ± 6.2 nM	47 ± 7 nM	1.9 (×10^−5) M^−1s^−1	0.022 s⁻¹	induced adherence and spreading	Kd = kdis/ka ([6]; GFLs cuvette): 114 ± 44 nM; Kd [6, 10]: 23.7 ± 7.7 nM; Kd ([6]; SPR, dynamics, read-out: dynamics-derived Kd for heparin): > 100 nM; ka (×10^−5) (M^−1s^−1) (syndecan-3 ectodomain): 7.5 ± 1.6 (×10^−5) M^−1s^−1
PSPN: persephin, secreted growth factor, GDNF family ligand (protein) ALSGPCQLWSLTLSVAELGLGYASEEKVIFRYCAGSCPRGARTQHGLALARLQGQGRAHGGPCCRPTRYTDVAFLDDRHRWQRLPQLSAAACGCGG				0.5 M	does not	0.87 (×10^−5) M^−1s^−1	0.093 s⁻¹	1072 ± 118 nM	> 1000 nM	0.02 (×10^−5) M^−1s^−1	0.064 s⁻¹	failed to adhere and spread	Kd ([6]; SPR, dynamics, read-out: Kd for heparin (dynamics)): 29100 nM; Kd ([6]; SPR, equilibrium, read-out: Kd for heparin (equilibrium)): 11100 nM; neurite outgrowth on immobilized protein ([1]; 18 hours): failed to form processes
